Experimental data as given in patent US20260209334A1 (MAX PLANCK GESELLSCHAFT ZUR F RDERUNG DER WISSENSCHAFTEN E V, published 2026).
Changes are numbered by the printed parent chain.

T1: human IL-17F homodimer, bacterially expressed construct (residues 39-163 with GSEGE linker) (human, UniProt Q96PD4 39-163)
T1 construct: also called IL-17F dimer
T1 chain: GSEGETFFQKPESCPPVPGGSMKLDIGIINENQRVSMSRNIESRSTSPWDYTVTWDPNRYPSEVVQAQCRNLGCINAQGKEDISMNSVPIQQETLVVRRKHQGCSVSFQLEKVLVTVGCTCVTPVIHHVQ

T2: human IL-17A homodimer, bacterially expressed construct (residues 40-155 with GSEDS spacer) (human, UniProt Q16552 40-155)
T2 chain: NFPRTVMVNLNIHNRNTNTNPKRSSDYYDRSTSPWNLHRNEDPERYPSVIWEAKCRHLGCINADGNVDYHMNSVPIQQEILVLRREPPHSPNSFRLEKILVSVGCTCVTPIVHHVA

T3: human IL-17F with C-terminal Avi-tag, biotinylated, immobilized on BLI sensors (human, UniProt Q96PD4 31-163, biotin on the C-terminal Avi-tag (BirA))
T3 construct: also called biotinylated IL-17F; not shown: C-terminal Avi-tag
T3 sequence: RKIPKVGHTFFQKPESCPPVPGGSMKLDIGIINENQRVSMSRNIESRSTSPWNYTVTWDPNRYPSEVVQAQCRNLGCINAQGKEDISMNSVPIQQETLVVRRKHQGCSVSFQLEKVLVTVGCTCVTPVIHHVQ

T4: recombinant human IL-17F (produced in HEK cells, Proteintech HZ-1116) (human, UniProt Q96PD4 31-163)
T4 sequence (looked up): T3 sequence

B1: Re42H11 (VHH)
VHH: QVQLVESGGGLVQAGGSLRLSCAASGLTASSYAMGWFRQAPGKEREFVAAISWISGGTKYADSVKGRFTMSRDNAKKQVYLEMNSLKPEDTAVYYCNDMPYGLDTRMDEYAYWGQGTQVTVSS
notes: Class A, first generation; For the crystal it was made with a His14-ScSUMO tag that was cleaved off
B2: Re42B03 with C-terminal Avi-Biotin-tag, biotinylated (VHH)
VHH: B1 VHH with A29G, A61T, G66D, N74Y, A111V
modifications: biotin on the C-terminal Avi-tag (BirA)
notes: not shown: C-terminal Avi-Biotin-tag
B3: Re42B03 (VHH)
VHH: B1 VHH with A29G, A61T, G66D, N74Y, A111V
notes: Class A, first generation
B4: Re42H11 with C-terminal Avi-Biotin-tag, biotinylated (VHH)
VHH: B1 VHH
modifications: biotin on the C-terminal Avi-tag (BirA)
notes: as for B2
B5: Bm18B05 (VHH)
VHH: QVQLVESGGGLVQPGGSLRLSCAVSGRTFSSYAMGWFRRPPGKEREFVAAISWSGGDTKYADFVTDRFTISRDDAKSTVYLQMNSLKPEDTAVYYCNDMPYGLDTRMDEYEYWGQGTQVTVSS
notes: Class A, first generation
B6: VHH662 (VHH)
VHH: EVQLVESGGGSVQAGDSLRLSCAASGRANSINWFGWFRQTPGKEREFVAGIRWSDAYTEYANSVKGRFTISRDNAKNTVDLQMDSLKPEDTAVYYCVLDLSTVRYWGQGTQVTVSS
notes: Control VHH of Ablynx, disclosed in WO2012156219
B7: Bm42A03 (VHH)
VHH: QVQLVESGGGLVQPGGSLRLSCVASGFTFSSFAMSWYRQDPGKERKLVAAITNDGGTTFYSDLVKGRFTISRDNTKNTVYLQMNNVKPDDAAVYYCMAVRGLYGSNWYDYPFELWGQGTQVTVSS
notes: Class C, second generation
B8: Bm44G10 (VHH)
VHH: B7 VHH with K43R
notes: Class C, second generation
B9: Re42B04a (VHH)
VHH: QVQLVESGGGLVQVGGSLRLSCEVSGLPVSSYAMGWFRQAPEKEREFVAAISWIGGDSRYAHFVKGRFTISRDNAKNTVHLQMDSLKPEDTAVYYCNDMPYGLDTRMDEYEYWGQGTQVTVSS
notes: Class A; Monovalent VHH
B10: Re42B04 with C-terminal Avi-Biotin-tag, biotinylated (VHH)
VHH: B9 VHH with Q115L
modifications: biotin on the C-terminal Avi-tag (BirA)
notes: as for B2
B11: Bm42A09 (VHH)
VHH: QVQLVESGGGLVRTGGSLRLSCSVSGDISSQSAMGWYRQVPGRQRELVAMIHTTKGDTYYADSVKGRFTISRINANNTIYLQMNNLKPEDTAIYYCTHNEPGDLYMGQGTLVTVSS
notes: Class B, second generation
B12: Bm45G07 (VHH)
VHH: QVQLVESGGGFVQAGGSLKLSCSVSGNTFITNHMGWFRQPPGKGREFVAGIRWSDGSTFYGDSVRGRFTISGDNAKHTLYLQMNSLKPDDTAVYYCYIDSGSDRYYGQGTLVTVSS
notes: Class D, second generation
B13: Bm42B11 (VHH)
VHH: QVQLVESGGDLVQAGGSLRLSCSVSGLRVSSYAMGWFRQAPGKEREFVAAISWVGGDTRYADSVKGRFTMSRDNAKKQVYLEMNSLKPEDTAVYYCNDMPYGMETRMDDYASWGQGTQVTVSS
notes: Class A, second generation
B14: Bm43B02 (VHH)
VHH: QVQLVESGGGLVQAGGSLNLSCVISRRTPSGYAMGWFRQASGKEREFVAAISWIGGGAVYADSVKGRFTMSRDNAKNTVYLQMNSLKPEDTAVYYCNDMPYGLDTTMDDYDYWGQGTLVTVSS
notes: Class A, second generation
B15: Bm44B11 (VHH)
VHH: B14 VHH with L118Q
notes: Class A, second generation

Tests used:
[1] = biological target: T5, human IL-17A with C-terminal Avi-tag, biotinylated, immobilized on BLI sensors (human, UniProt Q16552 24-155, biotin on the C-terminal Avi-tag (BirA)); assay: BLI, biotinylated IL-17A immobilized on streptavidin sensors, monovalent VHH as analyte (25, 50, 100 nM), mass transport fit
T5 construct: also called biotinylated IL-17A; not shown: C-terminal Avi-tag

[2] = biological target: T1, human IL-17F homodimer, bacterially …; assay: BLI, biotinylated VHH immobilized on streptavidin sensors, IL-17 as analyte (10, 20, 40 nM), mass transport fit; apparent value, avidity possible;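 note: wavelength shift (nm) signal, 800 s association then 800 s dissociation, reference from parallel sensors without VHH, avidity from immobilized VHH may lower apparent off-rates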
[3] = biological target: T6, human IL-17A/F heterodimer, bacterially expressed construct (human, UniProt Q16552 40-155; Q96PD4 39-163, limits assumed); assay: as above
T6 construct: IL-17A unit with N68D, IL-17F unit with N83D and C137S, both with GSEDS spacer; already in the entries

[4] = biological target: T2, human IL-17A homodimer, bacterially …; assay: as above
[5] = biological target: T3, human IL-17F with C-terminal Avi-tag, …; assay: BLI, biotinylated IL-17F immobilized, monovalent VHH as analyte
[6] = biological target: T5, human IL-17A with C-terminal Avi-tag, …; assay: BLI, biotinylated IL-17A immobilized, monovalent VHH as analyte
[7] = biological target: T4, recombinant human IL-17F (produced in …); assay: cell-based or functional assay
[8] = biological target: recombinant human IL-17A/F (produced in CHO cells, R&D Systems 5837-IL) (human, UniProt Q16552 24-155; Q96PD4 31-163, limits assumed); assay: cell-based or functional assay
[9] = biological target: recombinant human IL-17A (produced in HEK cells, Proteintech HZ-1113) (human, UniProt Q16552 24-155); assay: cell-based or functional assay
[10] = biological target: T3, human IL-17F with C-terminal Avi-tag, …; assay: BLI, biotinylated IL-17F immobilized, monovalent VHH as analyte; 2:1 heterogenous model, high affinity component
[11] = biological target: T5, human IL-17A with C-terminal Avi-tag, …; assay: BLI, biotinylated IL-17A immobilized, monovalent VHH as analyte; 2:1 heterogenous model, high affinity component
[12] = biological target: T6, human IL-17A/F heterodimer, bacterially …; assay: BLI, VHH immobilized, IL-17 as analyte; apparent KD with avidity; µM as printed (Table 3 uses pM)
[13] = biological target: T5, human IL-17A with C-terminal Avi-tag, …; assay: BLI, biotinylated IL-17A immobilized on streptavidin sensors, monovalent VHH as analyte (20, 100 nM), 2:1 heterogenous fit, low affinity component

recombinant human IL-17A/F (produced in CHO cells, R&D Systems 5837-IL), sequence (Q16552 24-155 limits assumed, chain 1 of 2, one chain of several): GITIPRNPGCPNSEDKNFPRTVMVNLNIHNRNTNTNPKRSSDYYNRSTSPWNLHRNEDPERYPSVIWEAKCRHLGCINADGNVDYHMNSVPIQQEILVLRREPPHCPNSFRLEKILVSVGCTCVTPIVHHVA
recombinant human IL-17A (produced in HEK cells, Proteintech HZ-1113), sequence (Q16552 24-155 limits assumed): as the sequence (Q16552 24-155 limits assumed, chain 1 of 2, one chain of several) above

Row | Binder | Kd [5] | Kd [6] | Neutralization potency, ranking from 1 = the best to 4 (HEK-Blue IL-17 reporter cells) [7] | Neutralization potency, ranking from 1 = the best to 4 (HEK-Blue IL-17 reporter cells) [8] | Neutralization potency, ranking from 1 = the best to 4 (HEK-Blue IL-17 reporter cells) [9] | further results
1 | B1 |  |  |  |  |  | Kd [1]: 1 nM
2 | B2 |  |  |  |  |  | Kd [2]: ≤ 0.01 nM; koff [2]: ≤ 1e-07 s⁻¹; kon [2]: 260000 M⁻¹ s⁻¹; Kd [3]: ≤ 0.01 nM; koff [3]: ≤ 1e-07 s⁻¹; kon [3]: 340000 M⁻¹ s⁻¹; Kd [4]: ≤ 0.01 nM; koff [4]: ≤ 1e-07 s⁻¹; kon [4]: 120000 M⁻¹ s⁻¹
3 | B3 |  |  |  |  |  | Kd [1]: 0.7 nM
4 | B4 |  |  |  |  |  | Kd [2]: ≤ 0.01 nM; koff [2]: ≤ 1e-07 s⁻¹; kon [2]: 270000 M⁻¹ s⁻¹; Kd [3]: ≤ 0.01 nM; koff [3]: ≤ 1e-07 s⁻¹; kon [3]: 360000 M⁻¹ s⁻¹; Kd [4]: ≤ 0.01 nM; koff [4]: ≤ 1e-07 s⁻¹; kon [4]: 120000 M⁻¹ s⁻¹
5 | B5 |  |  |  |  |  | Kd [1]: 2 nM
6 | B6 | 16 nM | 0.115 nM | 4 rank | 1 rank | 2 rank | 
7 | B7 |  |  | 1 rank | 1 rank | 1 rank | Kd [10]: 0.35 nM; Kd [11]: 0.15 nM
8 | B8 |  |  | 3 rank | 1 rank | 1 rank | Kd [10]: 0.35 nM; Kd [11]: 0.2 nM
9 | B9 | 0.5 nM | 0.05 nM | 2 rank | 1 rank | 1 rank | Kd [1]: ≤ 0.01 nM
10 | B10 |  |  |  |  |  | Kd [2]: ≤ 0.01 nM; koff [2]: ≤ 1e-07 s⁻¹; kon [2]: 140000 M⁻¹ s⁻¹; Kd [3]: ≤ 0.01 nM; koff [3]: ≤ 1e-07 s⁻¹; kon [3]: 240000 M⁻¹ s⁻¹; Kd [4]: ≤ 0.01 nM; koff [4]: ≤ 1e-07 s⁻¹; kon [4]: 110000 M⁻¹ s⁻¹; Kd [12]: ≤ 20 µM
11 | B11 |  |  | 1 rank | 1 rank | 2 rank | Kd [10]: ≤ 0.01 nM; Kd [11]: 0.8 nM; KD2 [13]: 300 nM
12 | B12 | 4 nM | 0.06 nM | 2 rank | 1 rank | 1 rank | 
13 | B13 | 2 nM | ≤ 0.01 nM | 2 rank | 1 rank | 1 rank | 
14 | B14 | 0.075 nM | 0.13 nM | 2 rank | 2 rank | 2 rank | 
15 | B15 | 0.09 nM | 0.15 nM | 1 rank | 1 rank | 3 rank | 
